Results from the RNAGym collection of RNA variant scans (doi:10.7554/elife.80360).

B1: Twister Ribozyme (parent)
chain: AACACUGCCAAUGCCGGUCCCAAGCCCGGAUAAAAGUGGAGGGGGCGG

Variants of: B1
Experiment: self-cleavage, relative activity (ratio to wild type); higher = more cleavage; co-transcriptional

Variant | self-cleavage
CACACUGCCAAUGCCGUUCCCAAGCCCGGAUAAAAGUGGAGGGGGCGG [A1C G17U] | 0.166
CACACUGCCAAUGCCGAUCCCAAGCCCGGAUAAAAGUGGAGGGGGCGG [A1C G17A] | 0.172
CACACUGCCAAUGCCGGUCCCAAGCCCGGAUAAAACUGGAGGGGGCGG [A1C G36C] | 0.159
GACACUACCAAUGCCGGUCCCAAGCCCGGAUAAAAGUGGAGGGGGCGG [A1G G7A] | 0.216
GACACUUCCAAUGCCGGUCCCAAGCCCGGAUAAAAGUGGAGGGGGCGG [A1G G7U] | 0.137
GACACUGCCAAUGCCGGUCCCAAGCCCGGAUAAAAGUGGUGGGGGCGG [A1G A40U] | 0.204
GACACUGCCAAUGCCGGUCCCAAGCCCGGAUAAAAGUGGCGGGGGCGG [A1G A40C] | 0.218
CACACUGCCAAUGCCGGUCCCAAGCCCGGAUAUAAGUGGAGGGGGCGG [A1C A33U] | 0.268
CACACUGCCAAUGCCGGGCCCAAGCCCGGAUAAAAGUGGAGGGGGCGG [A1C U18G] | 0.136
GGCACUGCCAAUGCCGGUCCCAAGCCCGGAUAAAAGUGGAGGGGGCGG [A1G A2G] | 1.19
GACACUGCCAAUGCCGGUCCCAAGCCCGGAUAAAAGUGGAGGGGGAGG [A1G C46A] | 0.412
GACACUGCCAAUGCCGGUCCCAAGCCCGGAUAAAAGUGGAGGGGGGGG [A1G C46G] | 0.428
CACACUGCCAAUGCCGGUCCCAAGCCCGGAUAAAAGUCGAGGGGGCGG [A1C G38C] | 0.22
CACACUGCCAAUGCCGGUCCCAAGCCCGGAUAAAAGUAGAGGGGGCGG [A1C G38A] | 0.189
CACACUGCCAAUGGCGGUCCCAAGCCCGGAUAAAAGUGGAGGGGGCGG [A1C C14G] | 0.124
CACACUGCCAAUGCCGGUCCCAAGCCCGGAUAAAAGGGGAGGGGGCGG [A1C U37G] | 0.262
CACACUGCCAAUGCCGGUCCCAAGCCCGGAUAAAAGCGGAGGGGGCGG [A1C U37C] | 0.174
GACACUGGCAAUGCCGGUCCCAAGCCCGGAUAAAAGUGGAGGGGGCGG [A1G C8G] | 0.262
GACACUGUCAAUGCCGGUCCCAAGCCCGGAUAAAAGUGGAGGGGGCGG [A1G C8U] | 0.245
GACACUGCCAAUCCCGGUCCCAAGCCCGGAUAAAAGUGGAGGGGGCGG [A1G G13C] | 0.223
GACACUGCCAAUUCCGGUCCCAAGCCCGGAUAAAAGUGGAGGGGGCGG [A1G G13U] | 0.129
CACACUGCCAAUGCCGGUCCCAAGCCCGGAUUAAAGUGGAGGGGGCGG [A1C A32U] | 0.228
CACACUGCCAAUGCCGGUCCCAAGCCCGGAUGAAAGUGGAGGGGGCGG [A1C A32G] | 0.18
CACACUGCCAAUGCCGGUCCCAAGCCCGGAUCAAAGUGGAGGGGGCGG [A1C A32C] | 0.188
CACACUGCCAAUGCCGGUCCCAAGCCCGGAUAAAAGUGGAGGGGGCGG [A1C] | 0.175
GACACUGCCAAUGCCGGUCCCAAGCCCGGAUAAAAGUGGAGGGGGCGG [A1G] | 0.461
CACACUGCCAAUGCCGGUCCCUAGCCCGGAUAAAAGUGGAGGGGGCGG [A1C A22U] | 0.14

Variant | self-cleavage
CACACUGCCAAUGCCGGUCCCGAGCCCGGAUAAAAGUGGAGGGGGCGG [A1C A22G] | 0.149
CACACUGCCAAUGCCGGUCGCAAGCCCGGAUAAAAGUGGAGGGGGCGG [A1C C20G] | 0.0894
CACACUGCCAAUGCCGGUCUCAAGCCCGGAUAAAAGUGGAGGGGGCGG [A1C C20U] | 0.187
GACACUGCCAAUGCCGGUCCAAAGCCCGGAUAAAAGUGGAGGGGGCGG [A1G C21A] | 0.157
GACACUGCCAAUGCUGGUCCCAAGCCCGGAUAAAAGUGGAGGGGGCGG [A1G C15U] | 0.405
GACACUGCCAAUGCCGGUCACAAGCCCGGAUAAAAGUGGAGGGGGCGG [A1G C20A] | 0.273
GACACUGCCAAUGCCGGUCUCAAGCCCGGAUAAAAGUGGAGGGGGCGG [A1G C20U] | 0.35
CACACUGCCAAUGCCGGUCCCAAGCCCGGAUAAAAGUGGAGGAGGCGG [A1C G43A] | 0.135
CACACUGCCAAUGCCGGUCCCAAGCCCGGAUAAAAGUGGAGGCGGCGG [A1C G43C] | 0.141
CACACUGCCAAUGCCGGUCCCAAGCCCGUAUAAAAGUGGAGGGGGCGG [A1C G29U] | 0.215
CACACUGCCAAUGCCGGUCCCAAGCCCGCAUAAAAGUGGAGGGGGCGG [A1C G29C] | 0.231
CACACUGCCAAUGCCGGUCCCAAGCCCGAAUAAAAGUGGAGGGGGCGG [A1C G29A] | 0.184
CACACUGCCAAUGCCGGUCCCAAGCCCGGAUAAAAGUGUAGGGGGCGG [A1C G39U] | 0.129
CACACUGCCAAAGCCGGUCCCAAGCCCGGAUAAAAGUGGAGGGGGCGG [A1C U12A] | 0.223
CACACUGCCAAGGCCGGUCCCAAGCCCGGAUAAAAGUGGAGGGGGCGG [A1C U12G] | 0.143
GACACUGCCAAUGCCGGUCCCAAGUCCGGAUAAAAGUGGAGGGGGCGG [A1G C25U] | 0.222
GACAGUGCCAAUGCCGGUCCCAAGCCCGGAUAAAAGUGGAGGGGGCGG [A1G C5G] | 0.172
CACACUGCCAAUGCCGGUCCCAAGCCCGGAUAAAAGUGGAGGGGGCAG [A1C G47A] | 0.168
CACACUGCCAAUGCCGGUCCCAAGCCCGGAUAAAAGUGGAGGGGGCUG [A1C G47U] | 0.228
CACACUGCCAAUGCCGGUCCCAAGCCAGGAUAAAAGUGGAGGGGGCGG [A1C C27A] | 0.192
GACACUGCCACUGCCGGUCCCAAGCCCGGAUAAAAGUGGAGGGGGCGG [A1G A11C] | 0.349
GACACUGCCAGUGCCGGUCCCAAGCCCGGAUAAAAGUGGAGGGGGCGG [A1G A11G] | 0.414
CACACUGCCAAUGCCGGUCCCAAGCCCGGAUAAAAGUGGUGGGGGCGG [A1C A40U] | 0.11
GAUACUGCCAAUGCCGGUCCCAAGCCCGGAUAAAAGUGGAGGGGGCGG [A1G C3U] | 0.294
GAGACUGCCAAUGCCGGUCCCAAGCCCGGAUAAAAGUGGAGGGGGCGG [A1G C3G] | 0.274
CACACUGCCAAUGCCGGUCCCAAGCCCGGAUAAAAGUGGAGGGGGUGG [A1C C46U] | 0.18
CACACUGCCAAUGCCGGUCCCAAGCCCGGAUAAAAGUGGAGGGGGGGG [A1C C46G] | 0.181
